Data as given in patent publication US20030100489.
Positions count from the first letter of the chain named.

T1: GST-p15
T1 chain: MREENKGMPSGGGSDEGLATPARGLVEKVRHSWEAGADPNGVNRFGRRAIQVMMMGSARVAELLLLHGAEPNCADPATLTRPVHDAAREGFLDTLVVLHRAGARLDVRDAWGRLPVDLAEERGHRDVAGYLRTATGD

T2: GST-p16 fusion protein
T2 chain: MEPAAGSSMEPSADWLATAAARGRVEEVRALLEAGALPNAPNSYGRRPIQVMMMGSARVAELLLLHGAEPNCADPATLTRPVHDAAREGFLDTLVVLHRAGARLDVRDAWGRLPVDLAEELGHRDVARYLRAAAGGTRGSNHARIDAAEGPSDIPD

T3: p15
T3 chain: T1 chain

T4: p16
T4 chain: T2 chain

B1: CDK4 (wild-type) (protein)
chain: MATSRYEPVAEIGVGAYGTVYKARDPHSGHFVALKSVRVPNGGGGGGGLPISTVREVALLRRLEAFEHPNVVRLMDVCATSRTDREIKVTLVFEHVDQDLRTYLDKAPPPGLPAETIKDLMRQFLRGLDFLHANCIVHRDLKPENILVTSGGTVKLADFGLARIYSYQMALTPVVVTLWYRAPEVLLQSTYATPVDMWSVGCIFAEMFRRKPLFCGNSEADQLGKIFDLIGLPPEDDWPRDVSLPRGAFPPRGPRPVQSVVPEMEESGAQLLLEMLTFNPHKRISAFRALQHSYLHKDEGNPE
B2: CDK4 Arg24-Cys mutant (protein)
chain: B1 chain with R24C

Key:
GST-p15 = molecular target: T1, GST-p15
GST-p16 fusion protein = molecular target: T2, GST-p16 fusion protein
p15 = molecular target: T3, p15
p16 = molecular target: T4, p16

Chain of p21, P38936 (P38936 whole entry, the tested form may be a part): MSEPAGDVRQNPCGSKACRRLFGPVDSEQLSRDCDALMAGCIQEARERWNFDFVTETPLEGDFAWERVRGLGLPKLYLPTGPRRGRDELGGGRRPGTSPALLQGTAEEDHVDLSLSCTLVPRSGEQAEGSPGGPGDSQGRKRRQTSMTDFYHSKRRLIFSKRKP

Row | Protein | kinase activity of CDK4 (GST-RB phosphorylation) (GST-p15) | kinase activity of CDK4 (GST-RB phosphorylation) (GST-p16 fusion protein) | CDK4 kinase activity (GST-RB phosphorylation) (p15) | CDK4 kinase activity (GST-RB phosphorylation) (p16) | ability of CDK4 to phosphorylate RB (p16) | RB phosphorylation by cyclin D/CDK4 (GST-RB substrate) (p21, P38936) | CDK4 kinase activity (GST-RB phosphorylation) (p21, P38936) | CDK4 kinase activity (GST-RB phosphorylation) (p27)
1 | B1 | Like p16, the p15-GST fusion protein was able to inhibit the kinase activity of CDK4 | Like p16, the p15-GST fusion protein was able to inhibit the kinase activity of CDK4 | upon addition of increasing amounts of either p16- or p15containing lysate to the CDK4/cyclin D mixture, the wild-type CDK4 was inhibited | upon addition of increasing amounts of either p16- or p15containing lysate to the CDK4/cyclin D mixture, the wild-type CDK4 was inhibited | In response to increasing amounts of p16, corresponding decreases in the ability of CDK4 to phosphorylate RB was observed | Addition of increasing amounts of p21 resulted in the accumulation of cyclin D/CDK4/p21 ternary complexes with a corresponding inhibition of RB phosphorylation |  | 
2 | B2 |  |  | the mutant CDK4 was relatively unaffected | the mutant CDK4 was relatively unaffected |  |  | the particular mutation, Arg24-Cys, did not effect the binding or inhibitory ability of either of those proteins | the particular mutation, Arg24-Cys, did not effect the binding or inhibitory ability of either of those proteins
